From US11643448B2 (JAPAN SCIENCE AND TECHNOLOGY AGENCY, priority 2013, dated 2023)
Read-outs that look alike come from different tables or passages of the source.

Legend:
Aβ = Aβ (Homo sapiens, UniProt P05067); assay: Oxidation of Aβ by catalyst under light irradiation; type: biochemical; conditions: Catalyst 1 4 μM or Catalyst 2 20 μM, Aβ 20 μM, 500 nm LED, 37° C., 15 minutes
PC12 cells [1] = assay: Cell viability after photo-oxygenation reaction in the presence of cells (WST-8); type: cell-based, rat; conditions: light irradiation, regardless of presence or absence of Aβ (f and h)
Protocol: In a plate well in which the PC12 cells had been seeded, a phosphate buffer (pH 7.4, 50 μL) containing 20 μM of Aβ and a catalyst (Catalyst 1 in 4 μM or Catalyst 2 in 20 μM) was irradiated with 500 nm LED (light emitting diode) at 37° C. for 15 minutes. After the reaction, 50 μL of a HEPES buffer solution containing a 0.1% horse serum-containing medium was added to thereto (final Aβ concentration: 10 μM).
In order to achieve Aβ selective oxidation, a peptide having a high affinity for Aβ, D-[Lys-Leu-Val-Phe(4-phenyl)-Phe] (SEQ ID NO: 3) was identified, and was bonded to flavin as an affinity tag of Aβ (Catalyst 2 in FIG. 17). Catalyst 2 or riboflavin itself (Catalyst 1 in FIG. 17) was added to a phosphate buffer containing Aβ, and the mixture was irradiated with light in the presence of cells. 500 nm LED was used as a light source, and light was irradiated at 37° C. for 15 minutes. […] After the oxidation reaction, the cells were further incubated for 2 days, and the cell viability was determined thereafter (bar graph in FIG. 17). […] It is conceivable that the cells were damaged due to non-specific oxidation. On the other hand, when Catalyst 2 was used in the absence of Aβ under the condition j, 50% or more of the cells survived after the light irradiation. […]

PC12 cells [2] = conditions: 10 µM
Protocol: PC12 cells, i.e., rat adrenal medulla-derived pheochromocytoma (purchased from RIKEN, Japan), were used. A phosphate buffer (pH 7.4) in which Aβ1-42 (20 μM) and riboflavin (4 μM) had been dissolved was incubated at room temperature under irradiation with a fluorescent lamp (24 W, natural white, a distance between a light source and a reaction mixture was about 3 cm). A part of the reaction mixture (50 μL) was added to a cell culture medium (50 μL) (final Aβ concentration was 10 μM), and the mixture was incubated at 37° C. for 48 hours under 5% CO2 atmosphere. Cells were observed and photographed using an inverted microscope DMI6000 B (Leica Microsystems GmbH, Wetzlar, Germany) equipped with a digital camera DFC360 FX (Leica Microsystems GmbH). A cell count reagent containing WST-8 (2-(2-methoxy-4-nitrophenyl)-3-(4-nitrophenyl)-5-(2,4-disulfonyl)-2H-tetrazolium, monosodium salt) (10 μL) was added to the mixture. The mixture was incubated at 37° C. for 6 hours under 5% CO2 atmosphere. Thereafter, absorbance at 450 nm (reference wavelength: 655 nm) was measured by iMark™ plate reader (Bio-Rad Laboratories, Inc., Hercules, Calif.).

native Aβ = native Aβ (Homo sapiens, UniProt P05067); assay: Inhibition of aggregation of native Aβ by oxidized Aβ (atomic force microscope analysis); type: biochemical; conditions: native Aβ 20 μM with oxidized Aβ 20 μM, 37° C., 6 hours, compared with native Aβ alone
Chain of native Aβ (P05067 672-713): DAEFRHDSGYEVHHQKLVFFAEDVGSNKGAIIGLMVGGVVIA
Protocol: A part of the reaction mixture (10 μL) was added on mica, incubated at room temperature for 3 minutes, washed with 20 μL of water, and air dried. The measurement was carried out using Nano Wizard II (JPK instruments AG, Berlin, Germany) in a tapping mode in air at room temperature.

Aβ1-42 [3] = molecular target: T1, Aβ1-42 (Homo sapiens, UniProt P05067); assay: Thioflavin T fluorescence assay of aggregation; type: biochemical; conditions: Aβ1-42 20 μM, 37° C., incubation time of 3 hours and 6 hours
T1 sequence (P05067 672-713): as above
Protocol: A part of the reaction mixture (10 μL) was added to a 50 mM glycine-NaOH buffer (pH 8.5, 400 μL) containing thioflavin T (5 μM), and the resultant mixture was immediately mixed to measure a fluorescence intensity of thioflavin T. In the fluorescence intensity measurement, an excitation wavelength was 440 nm, and a fluorescence wavelength was 470 nm.
A phosphate buffer having the same composition was reacted with no irradiation to provide a sample “native Aβ” as a control. Aggregation of each sample was evaluated by thioflavin T assay (it is known that fluorescence intensity of thioflavin T corresponds to the amount of an aggregate being rich in β sheet structure) (FIG. 11).

Aβ1-42 [4] = molecular target: T1, Aβ1-42; assay: Atomic force microscope analysis of fibril formation; type: biochemical; conditions: Aβ1-42 20 μM, 37° C.
Protocol: A phosphate buffer (10 mM, pH 7.4) in which Aβ1-42 (20 μM) and riboflavin (4 μM) had been dissolved was incubated at 37° C. under irradiation with a fluorescent lamp (24 W, natural white, a distance between a light source and a reaction mixture was about 3 cm). A part of the reaction mixture (10 μL) was added on mica, incubated at room temperature for 3 minutes, washed with 20 μL of water, and air dried. The measurement was carried out using Nano Wizard II (JPK instruments AG, Berlin, Germany) in a tapping mode in air at room temperature.

Aβ1-42 [5] = molecular target: T1, Aβ1-42; assay: Circular dichroism spectroscopy analysis; type: biochemical; conditions: Aβ1-42 20 μM, 37° C.
Protocol: A phosphate buffer (10 mM, pH7.4) in which Aβ1-42 (20 μM) and riboflavin (4 μM) had been dissolved was incubated at 37° C. under irradiation with a fluorescent lamp (24 W, natural white, a distance between a light source and a reaction mixture was about 3 cm). A part of the reaction mixture was analyzed using Model 202SF (AVIV Biomedical, Inc., Lakewood, N.J.).

Chain of Aβ (P05067 672-713 limits assumed): as the sequence (P05067 672-713) above

| Compound | extent of Aβ oxidation (Aβ) | cell viability (PC12 cells [1]) | cell viability (PC12 cells [2]) [%] | amyloid fibril content (native Aβ) | fluorescence intensity of thioflavin T (Aβ1-42 [3]) | fibril formation (Aβ1-42 [4]) | secondary structure by circular dichroism (Aβ1-42 [5]) |
| --- | --- | --- | --- | --- | --- | --- | --- |
| Cc1cc2nc3c(=O)[nH]c(=O)nc-3n(C[C@H](O)[C@H](O)[C@H](O)CO)c2cc1C [Catalyst 1, riboflavin] | about 60% | almost all cells died | – | – | – | – | – |
| oxidized Aβ: Aβ1-42 oxidized with riboflavin under light; Tyr10, His13, His14 and Met35 oxidized, one to eight oxygen atoms added | – | – | ≥ 50 | significantly decreased | significantly lower than that of the native Aβ | hardly | random coil structure was maintained |
